# Test results from patent US20050164323A1 (Pfizer, published 2005).
# Molecular target: PKC-θ kinase domain (PKC-θ KD; amino acid residues 362 to 706), C-terminal hexa-histidine tag, expressed in … (Homo sapiens (Human), UniProt Q04759 362-706, autophosphorylated at 5 or 6 residues in E. coli; sites identified: Ser695, Ser685 and Thr538 or Thr536 (numbering of full-length PKC-θ))
# Test: cell-based or functional assay
# Sequence of PKC-θ kinase domain (PKC-θ KD; amino acid residues 362 to 706), C-terminal hexa-histidine tag, expressed in … (Q04759 other isoform, or with tags, fused parts or gaps limits assumed): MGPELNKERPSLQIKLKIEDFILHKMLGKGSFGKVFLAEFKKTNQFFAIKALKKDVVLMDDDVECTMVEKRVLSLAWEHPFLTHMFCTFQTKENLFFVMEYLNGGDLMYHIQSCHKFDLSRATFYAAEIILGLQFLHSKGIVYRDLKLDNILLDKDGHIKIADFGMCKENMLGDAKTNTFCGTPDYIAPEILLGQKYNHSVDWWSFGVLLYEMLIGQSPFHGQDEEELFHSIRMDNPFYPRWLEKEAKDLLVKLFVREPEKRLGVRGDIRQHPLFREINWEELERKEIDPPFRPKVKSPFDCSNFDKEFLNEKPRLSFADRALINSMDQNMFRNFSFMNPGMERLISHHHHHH
row,Binder,"appKm (steady-state kinase kinetics, saturating ATP, 100 mM NaCl)"
1,"RTPKLARQASIELPSM [Peptide 4 (RTPKLARQASIELPSM), substrate, lymphocyte-specific protein 1]",240 µM
2,"RFARKGSLRQKNV [Peptide 2 (RFARKGSLRQKNV), substrate, pseudo-substrate PKC alpha]",4.3 µM
3,"LKRSLSEM [Peptide 3 (LKRSLSEM), substrate, Serum Response Factor]",420 µM
4,"FARKGSLRQ [Peptide 1 (FARKGSLRQ), substrate, pseudo-substrate PKC alpha]",6.5 µM
